Laboratory results published in paper PMC4238058.

Tests used:
[1] = biological target: (SH3)3: three repeats of the second Nck SH3 domain, plus the Nck SH2 domain (human)
[2] = biological target: triply phosphorylated His8-tagged Nephrin cytoplasmic tail (amino acids 1174-1223, Y1183F, Y1210F; pTyr1176, pTyr1193, pTyr1217) (human)
[3] = biological target: triply phosphorylated TIR3Y (His8-tagged human Nephrin tail with its pTyr sites replaced by the pTyr motif of EPEC Tir) (EPEC | human)

| Substance | equilibrium fractional intensity of p-Nephrin clusters (1 uM (SH3)3, 500 nM N-WASP) against peptide concentration, 100 nM to 100 uM; the pair that is blocked: (SH3)3 with p-Nephrin [1] | clustering concentration of (SH3)3 (SH3 module concentration) on bilayers with p-Nephrin and 500 nM N-WASP [2] | clustering concentration of (SH3)3 (SH3 module concentration) on bilayers with p-TIR at 2000 molecules/um^2 and 500 nM N-WASP [3] |
| --- | --- | --- | --- |
| TIR-1pY: N-terminal rhodamine labeled single pTyr motif from EPEC Tir protein (peptide) | > 10 µM | – | – |
| (SH3)3: three repeats of the second Nck SH3 domain, plus the Nck SH2 domain (designed binder) | – | 200 nM | 100 nM |
